Measurements reported in paper PMC5511190.

Molecular target: GST-LRRK2 WD40 G2385R (human) (UniProt Q5S007)
Test: affinity purification with mass spectrometry; 5 µg GST fusion protein on glutathione-Sepharose incubated with adult mouse brain lysate or crude SV fraction (LP2) (1 mg protein) 2 h at 4 °C; washes 150 mM NaCl, 2 mM EDTA, 50 mM Tris-HCl, 0.2% Triton, pH 7.4; LC-MS/MS with label-free quantification, 4 samples per condition (GST-control, GST-WD40, GST-WD40-G2385R)

Sequence of GST-LRRK2 WD40 G2385R (human) (Q5S007 whole entry G2385R, the tested form may be a part): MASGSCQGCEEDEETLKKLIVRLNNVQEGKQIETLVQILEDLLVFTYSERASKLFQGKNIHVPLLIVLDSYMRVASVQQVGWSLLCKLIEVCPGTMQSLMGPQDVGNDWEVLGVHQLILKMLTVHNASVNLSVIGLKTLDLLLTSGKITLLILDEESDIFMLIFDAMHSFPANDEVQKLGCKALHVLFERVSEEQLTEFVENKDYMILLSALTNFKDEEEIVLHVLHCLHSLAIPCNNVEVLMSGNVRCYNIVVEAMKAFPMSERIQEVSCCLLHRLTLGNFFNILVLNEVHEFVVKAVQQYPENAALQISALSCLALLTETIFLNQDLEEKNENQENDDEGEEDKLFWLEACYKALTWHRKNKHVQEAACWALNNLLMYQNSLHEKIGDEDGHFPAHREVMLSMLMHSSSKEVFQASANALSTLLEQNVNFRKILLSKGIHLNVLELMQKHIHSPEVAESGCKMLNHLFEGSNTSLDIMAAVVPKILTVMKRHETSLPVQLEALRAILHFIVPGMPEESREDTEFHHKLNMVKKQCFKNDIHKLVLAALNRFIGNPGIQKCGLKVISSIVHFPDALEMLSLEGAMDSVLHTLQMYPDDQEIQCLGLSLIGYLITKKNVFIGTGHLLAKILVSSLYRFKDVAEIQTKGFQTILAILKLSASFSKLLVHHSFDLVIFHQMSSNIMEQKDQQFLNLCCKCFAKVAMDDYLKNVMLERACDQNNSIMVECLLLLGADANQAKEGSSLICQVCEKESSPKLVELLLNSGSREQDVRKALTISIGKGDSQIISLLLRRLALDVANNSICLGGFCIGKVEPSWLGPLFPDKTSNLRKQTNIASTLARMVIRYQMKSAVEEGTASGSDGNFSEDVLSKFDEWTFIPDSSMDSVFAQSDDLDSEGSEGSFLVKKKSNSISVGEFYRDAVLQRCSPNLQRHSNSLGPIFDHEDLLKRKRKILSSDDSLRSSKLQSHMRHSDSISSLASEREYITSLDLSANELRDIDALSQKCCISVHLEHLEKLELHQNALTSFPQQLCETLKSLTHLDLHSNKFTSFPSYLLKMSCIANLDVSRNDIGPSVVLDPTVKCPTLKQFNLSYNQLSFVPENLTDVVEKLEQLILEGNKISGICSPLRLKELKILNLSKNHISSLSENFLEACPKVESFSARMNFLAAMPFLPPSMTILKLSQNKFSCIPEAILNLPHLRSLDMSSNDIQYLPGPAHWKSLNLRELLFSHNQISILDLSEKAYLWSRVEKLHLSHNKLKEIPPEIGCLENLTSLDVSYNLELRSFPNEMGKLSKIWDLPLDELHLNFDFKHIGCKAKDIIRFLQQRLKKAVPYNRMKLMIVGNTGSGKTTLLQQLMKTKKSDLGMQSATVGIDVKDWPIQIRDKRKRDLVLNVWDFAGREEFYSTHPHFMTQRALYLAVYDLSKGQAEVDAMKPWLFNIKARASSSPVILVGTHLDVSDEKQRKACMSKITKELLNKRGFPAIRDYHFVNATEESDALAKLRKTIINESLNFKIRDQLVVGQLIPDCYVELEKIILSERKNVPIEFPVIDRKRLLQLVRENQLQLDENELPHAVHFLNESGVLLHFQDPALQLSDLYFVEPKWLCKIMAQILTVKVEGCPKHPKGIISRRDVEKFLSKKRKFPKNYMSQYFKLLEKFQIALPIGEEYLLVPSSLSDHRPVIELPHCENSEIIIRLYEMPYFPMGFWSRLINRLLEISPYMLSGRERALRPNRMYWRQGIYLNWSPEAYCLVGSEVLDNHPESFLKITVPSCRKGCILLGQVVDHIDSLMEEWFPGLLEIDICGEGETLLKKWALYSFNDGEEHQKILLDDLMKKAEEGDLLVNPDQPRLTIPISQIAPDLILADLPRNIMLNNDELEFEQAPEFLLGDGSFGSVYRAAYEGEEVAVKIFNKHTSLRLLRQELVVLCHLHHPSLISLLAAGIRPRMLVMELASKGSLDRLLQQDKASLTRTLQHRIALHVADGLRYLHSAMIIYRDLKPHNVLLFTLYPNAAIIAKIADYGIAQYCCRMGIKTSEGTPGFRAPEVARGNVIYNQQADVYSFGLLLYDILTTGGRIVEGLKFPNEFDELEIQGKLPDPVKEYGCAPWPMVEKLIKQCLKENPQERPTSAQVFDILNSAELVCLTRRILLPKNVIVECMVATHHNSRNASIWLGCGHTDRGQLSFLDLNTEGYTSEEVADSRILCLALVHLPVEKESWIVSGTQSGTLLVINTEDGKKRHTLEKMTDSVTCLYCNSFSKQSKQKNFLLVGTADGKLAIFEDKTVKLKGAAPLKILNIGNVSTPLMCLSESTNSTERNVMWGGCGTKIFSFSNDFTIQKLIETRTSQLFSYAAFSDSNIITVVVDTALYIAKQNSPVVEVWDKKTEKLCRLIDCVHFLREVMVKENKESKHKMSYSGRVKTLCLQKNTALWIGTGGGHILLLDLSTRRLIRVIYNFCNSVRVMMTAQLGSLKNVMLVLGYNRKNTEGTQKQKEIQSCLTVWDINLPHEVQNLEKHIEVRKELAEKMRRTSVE
Sequence of 14-3-3 protein epsilon (P62259 whole entry): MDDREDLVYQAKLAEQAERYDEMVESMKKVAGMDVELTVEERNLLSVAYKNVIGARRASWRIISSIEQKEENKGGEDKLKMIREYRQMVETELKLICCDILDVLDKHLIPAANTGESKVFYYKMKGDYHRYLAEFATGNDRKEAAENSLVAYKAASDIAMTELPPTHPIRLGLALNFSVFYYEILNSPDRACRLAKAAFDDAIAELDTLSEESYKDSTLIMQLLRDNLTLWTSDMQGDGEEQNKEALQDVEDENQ
Sequence of Dihydropyrimidinase-related protein 1 (P97427 whole entry): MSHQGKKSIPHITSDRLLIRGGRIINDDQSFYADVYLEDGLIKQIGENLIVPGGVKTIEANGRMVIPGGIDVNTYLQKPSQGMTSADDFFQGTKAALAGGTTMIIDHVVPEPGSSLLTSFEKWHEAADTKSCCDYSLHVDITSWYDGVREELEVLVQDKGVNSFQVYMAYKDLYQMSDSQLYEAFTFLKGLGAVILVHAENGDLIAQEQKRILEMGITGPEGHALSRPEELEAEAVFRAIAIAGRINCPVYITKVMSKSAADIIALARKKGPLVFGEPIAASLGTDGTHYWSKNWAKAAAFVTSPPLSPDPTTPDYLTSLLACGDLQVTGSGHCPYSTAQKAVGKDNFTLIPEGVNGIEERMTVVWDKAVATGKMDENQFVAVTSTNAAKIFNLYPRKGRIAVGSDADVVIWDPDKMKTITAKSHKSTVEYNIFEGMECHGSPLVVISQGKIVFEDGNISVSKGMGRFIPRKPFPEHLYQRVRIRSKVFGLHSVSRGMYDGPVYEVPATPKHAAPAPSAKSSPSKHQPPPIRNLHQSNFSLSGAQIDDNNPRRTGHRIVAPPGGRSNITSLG
Sequence of Actin-related protein 2/3 complex subunit 1 A (Q9R0Q6 whole entry, one chain of several): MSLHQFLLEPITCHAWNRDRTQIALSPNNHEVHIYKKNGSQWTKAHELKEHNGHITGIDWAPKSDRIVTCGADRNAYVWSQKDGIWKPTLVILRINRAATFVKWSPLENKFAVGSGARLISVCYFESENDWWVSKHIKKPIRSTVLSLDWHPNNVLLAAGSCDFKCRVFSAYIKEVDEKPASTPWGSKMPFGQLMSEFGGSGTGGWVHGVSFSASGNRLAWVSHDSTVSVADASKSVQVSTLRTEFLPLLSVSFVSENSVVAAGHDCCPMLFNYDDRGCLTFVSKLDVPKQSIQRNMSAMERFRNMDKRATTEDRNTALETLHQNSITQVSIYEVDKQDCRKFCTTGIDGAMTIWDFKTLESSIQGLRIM
Sequence of Tubulin alpha-1A chain (P68369 whole entry): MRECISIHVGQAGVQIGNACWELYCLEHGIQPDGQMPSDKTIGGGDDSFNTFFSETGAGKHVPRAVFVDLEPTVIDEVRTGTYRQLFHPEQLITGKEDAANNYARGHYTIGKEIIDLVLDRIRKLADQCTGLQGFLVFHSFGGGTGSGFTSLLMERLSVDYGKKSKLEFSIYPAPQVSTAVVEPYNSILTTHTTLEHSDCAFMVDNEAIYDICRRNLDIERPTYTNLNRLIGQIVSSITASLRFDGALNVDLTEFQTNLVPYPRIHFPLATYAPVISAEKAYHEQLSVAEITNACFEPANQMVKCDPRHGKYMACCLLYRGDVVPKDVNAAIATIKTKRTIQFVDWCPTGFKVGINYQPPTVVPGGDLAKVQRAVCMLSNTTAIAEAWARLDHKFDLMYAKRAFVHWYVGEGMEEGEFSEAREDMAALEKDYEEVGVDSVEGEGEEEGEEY
Sequence of Synapsin-2 (Q64332 whole entry): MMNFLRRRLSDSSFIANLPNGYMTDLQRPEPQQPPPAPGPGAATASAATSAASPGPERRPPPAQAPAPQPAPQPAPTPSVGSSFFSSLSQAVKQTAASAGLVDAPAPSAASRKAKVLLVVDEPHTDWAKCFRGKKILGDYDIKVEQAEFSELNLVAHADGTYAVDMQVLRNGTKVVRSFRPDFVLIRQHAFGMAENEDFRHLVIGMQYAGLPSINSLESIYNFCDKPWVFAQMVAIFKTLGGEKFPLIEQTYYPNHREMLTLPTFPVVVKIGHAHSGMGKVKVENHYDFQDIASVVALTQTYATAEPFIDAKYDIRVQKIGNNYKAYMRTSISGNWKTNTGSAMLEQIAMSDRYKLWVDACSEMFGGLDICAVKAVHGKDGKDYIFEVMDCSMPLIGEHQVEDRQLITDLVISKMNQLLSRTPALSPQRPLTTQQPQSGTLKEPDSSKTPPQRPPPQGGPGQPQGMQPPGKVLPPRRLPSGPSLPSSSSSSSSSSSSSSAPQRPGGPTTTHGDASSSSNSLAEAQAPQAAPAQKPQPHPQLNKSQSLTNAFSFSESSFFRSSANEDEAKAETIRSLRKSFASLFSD
Sequence of Ras-related protein Rab-1A (P62821 whole entry): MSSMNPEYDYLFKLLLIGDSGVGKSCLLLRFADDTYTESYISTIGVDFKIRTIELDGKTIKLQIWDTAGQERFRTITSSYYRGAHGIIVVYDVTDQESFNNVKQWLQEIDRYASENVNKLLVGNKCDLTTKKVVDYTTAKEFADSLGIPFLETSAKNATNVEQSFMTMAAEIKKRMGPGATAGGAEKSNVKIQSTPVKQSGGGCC

| Substance | G2385R/WT (ratio of abundance in G2385R versus wild-type bait) |
| --- | --- |
| 14-3-3 protein epsilon (from UniProt P62259 1-255) (natural protein) | 0.37 |
| Dihydropyrimidinase-related protein 1 (from UniProt P97427 1-572) (natural protein) | 0.42 |
| Ras-related protein Rab-1A (from UniProt P62821 1-205) (natural protein) | 0.62 |
| Tubulin alpha-1A chain (from UniProt P68369 1-451) (natural protein) | 0.49 |
| Tubulin alpha-4A chain (from UniProt P68368 1-448) (natural protein) | 0.53 |
| Tubulin beta-4A chain (from UniProt Q9D6F9 1-444) (natural protein) | 0.39 |

The next lines start with the values.

| G2385R/WT (ratio of abundance in G2385R versus wild-type bait) | Substance |
| --- | --- |
| 0.44 | AP-2 complex subunit alpha-1 (from UniProt P17426 1-977) (natural protein) |
| 0.26 | Actin-related protein 2/3 complex subunit 1 A (from UniProt Q9R0Q6 1-370) (natural protein) |
| 0.37 | Coronin-1A (from UniProt O89053 1-461) (natural protein) |
| 0.46 | Dihydropyrimidinase-related protein 4 (from UniProt O35098 1-572) (natural protein) |
| 0.5 | F-actin-capping protein subunit alpha-2 (from UniProt P47754 1-286) (natural protein) |
| 0.53 | Synapsin-2 (from UniProt Q64332 1-586) (natural protein) |
| 0.49 | Tubulin beta-4B chain (from UniProt P68372 1-445) (natural protein) |
